Results reported in patent US10125171 (APELLIS PHARMACEUTICALS, dated 2018).

Biological target: human complement component C3 (human, UniProt P01024 23-1663)
Assay: cell-based or functional assay

Sequence of human complement component C3 (P01024 23-1663 limits assumed): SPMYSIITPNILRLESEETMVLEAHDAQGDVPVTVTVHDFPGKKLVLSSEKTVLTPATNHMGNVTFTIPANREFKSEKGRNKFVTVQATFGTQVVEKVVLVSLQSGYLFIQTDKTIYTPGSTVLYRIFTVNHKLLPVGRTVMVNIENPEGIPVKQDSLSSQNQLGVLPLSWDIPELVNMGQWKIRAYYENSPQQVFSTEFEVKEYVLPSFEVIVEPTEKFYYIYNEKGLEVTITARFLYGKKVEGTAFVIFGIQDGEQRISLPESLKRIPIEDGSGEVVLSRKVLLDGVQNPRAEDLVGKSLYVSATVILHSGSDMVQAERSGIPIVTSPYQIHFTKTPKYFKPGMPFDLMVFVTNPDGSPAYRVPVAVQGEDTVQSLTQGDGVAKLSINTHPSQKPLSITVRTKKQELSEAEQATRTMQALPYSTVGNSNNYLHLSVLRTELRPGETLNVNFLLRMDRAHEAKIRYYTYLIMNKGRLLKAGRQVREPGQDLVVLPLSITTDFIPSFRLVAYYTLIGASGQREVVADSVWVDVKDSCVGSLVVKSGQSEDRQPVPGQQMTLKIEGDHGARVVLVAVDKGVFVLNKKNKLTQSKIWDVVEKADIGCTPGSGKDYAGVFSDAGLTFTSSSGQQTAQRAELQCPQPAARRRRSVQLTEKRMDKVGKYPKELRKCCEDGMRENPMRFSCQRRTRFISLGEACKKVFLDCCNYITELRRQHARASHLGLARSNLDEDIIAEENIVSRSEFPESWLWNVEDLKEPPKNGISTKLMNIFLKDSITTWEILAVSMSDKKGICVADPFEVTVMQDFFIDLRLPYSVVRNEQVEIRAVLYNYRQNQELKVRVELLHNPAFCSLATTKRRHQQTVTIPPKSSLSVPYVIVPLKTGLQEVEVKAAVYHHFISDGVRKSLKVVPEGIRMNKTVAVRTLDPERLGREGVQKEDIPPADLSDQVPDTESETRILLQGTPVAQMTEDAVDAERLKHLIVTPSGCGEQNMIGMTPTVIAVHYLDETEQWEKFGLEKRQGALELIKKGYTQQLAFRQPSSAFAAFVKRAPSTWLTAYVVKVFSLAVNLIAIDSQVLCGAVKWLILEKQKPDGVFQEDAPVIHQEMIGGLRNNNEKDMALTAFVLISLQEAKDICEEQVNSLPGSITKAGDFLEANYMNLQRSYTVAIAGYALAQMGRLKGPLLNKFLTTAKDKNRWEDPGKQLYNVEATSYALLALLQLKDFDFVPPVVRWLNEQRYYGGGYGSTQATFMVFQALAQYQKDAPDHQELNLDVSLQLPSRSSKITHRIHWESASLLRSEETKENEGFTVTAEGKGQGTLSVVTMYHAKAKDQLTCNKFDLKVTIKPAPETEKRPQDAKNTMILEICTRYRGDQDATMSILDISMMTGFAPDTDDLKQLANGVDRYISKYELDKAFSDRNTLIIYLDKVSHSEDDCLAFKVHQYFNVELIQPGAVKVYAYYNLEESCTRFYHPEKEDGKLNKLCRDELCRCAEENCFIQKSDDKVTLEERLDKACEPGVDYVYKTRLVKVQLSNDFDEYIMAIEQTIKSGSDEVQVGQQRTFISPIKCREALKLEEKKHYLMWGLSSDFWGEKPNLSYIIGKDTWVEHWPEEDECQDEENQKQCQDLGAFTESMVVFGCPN

B1: (CA28-AEEAc)8-PEG40k (peptide)
peptide: ICVWQDWGAHRCTK
modifications: N-terminal acetyl; 1-methyl-tryptophan at position 4; disulfide Cys2-Cys12; AEEAc spacer between Thr13 and the C-terminal Lys; Lys side chain coupled to one arm of an eight-arm 40 kD PEG (hexaglycerol octa(succinimidyloxyglutaryl)polyoxyethylene); C-terminal amide
- IC50 on a molar basis (corrected for 7.5 CA28 moieties per molecule), classical complement inhibition assay (C3b deposition ELISA, human plasma): ~0.26 µM

B2: CA28-AEEAc-Lys-(PEG30k) (peptide)
peptide: ICVWQDWGAHRCTK
modifications: N-terminal acetyl; 1-methyl-tryptophan at position 4; disulfide Cys2-Cys12; AEEAc (8-amino-3,6-dioxaoctanoic acid) spacer between Thr13 and the C-terminal Lys; linear monofunctional 30 kD PEG coupled (NHS ester) to the Lys side chain; C-terminal amide
- activity relative to CA28 on a molar basis, classical complement inhibition assay: ~30%
- complement inhibiting activity relative to CA28 on a molar basis: ~30 % of the activity of CA28

B3: CA28-AEEAc-Lys-(PEG40k) (peptide)
peptide: ICVWQDWGAHRCTK
modifications: N-terminal acetyl; 1-methyl-tryptophan at position 4; disulfide Cys2-Cys12; AEEAc (8-amino-3,6-dioxaoctanoic acid) spacer between Thr13 and the C-terminal Lys; linear monofunctional 40 kD PEG coupled (NHS ester) to the Lys side chain; C-terminal amide
- activity relative to CA28 on a molar basis, classical complement inhibition assay: ~30%
- complement inhibiting activity relative to CA28 on a molar basis: ~30 % of the activity of CA28
